Where no end group is shown, it is not given here.

Assay type in all cases: biochemical
Test [1] deals with T1, microbial transglutaminase (mTG) (Streptomyces mobaraensis, UniProt P81453).
T1 construct: purchased Covalab, France opr 0054
T1 sequence (P81453 77-407): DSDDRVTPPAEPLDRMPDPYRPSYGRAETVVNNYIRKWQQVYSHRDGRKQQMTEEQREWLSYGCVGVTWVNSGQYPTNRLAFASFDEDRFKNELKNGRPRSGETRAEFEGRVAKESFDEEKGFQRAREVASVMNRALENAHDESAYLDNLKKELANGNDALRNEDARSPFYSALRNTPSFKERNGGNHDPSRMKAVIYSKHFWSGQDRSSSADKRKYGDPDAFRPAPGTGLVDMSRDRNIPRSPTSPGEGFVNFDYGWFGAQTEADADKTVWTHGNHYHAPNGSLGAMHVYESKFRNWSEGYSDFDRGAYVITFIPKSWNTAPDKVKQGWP
The experiment in a line: Colorimetric assay: mTG incorporation of biotinylated peptides into immobilized spermine, apparent Km. The conditions noted are these: spermine plate; for Kmapp: biotin tagged peptides at 160-0 μM, Lineweaver-Burk, nr = peptide not recognized by the enzyme; for reactivity of peptide with mTG (text on Table 3): biotinylated peptides. The text has this:
To produce the Covabtest-spm plate, the procedure previously described in Mily et al (2009) was used.
For the screening of the peptide listed in table 2 (Biotinylated peptides) the inventors used our colorimetric assay to measure transglutaminase 2 (TG2) cross linking activity (Mily et al, 2009) and commercialized under ref opr0033 in which mTG was used instead of TG2 and described in this experience. The principle of the method is based on the transamidation activity of mTG, using covalently coupled spermine to carboxy-substituted polystyrene plates and biotinylated peptides. The assay consists of the incorporation of the glutamine gamma-carboxamide group into the immobilized spermine. The amount of biotinylated peptide bound to the plate, as measured by the activity of streptavidin-peroxidase, is directly proportional to the TG activity. Absorbance was measured at 450 nm using the microplate reader.
In order to compare the affinity of mTG to the preferred substrate, the peptides were used at different concentrations ranging from 160, 80, 40, 20, 10, 5, 2.5 and 0 μM. Then the apparent Km were determined for each peptide and were calculated by Lineweaver-Burk method (1/Absorbance=f(1/[mTG (μM)]).
In this experiment, spermine was conjugated into the plate as described in B-II-4. Biotinylated peptides described in table 3 were incubated with mTG at different concentration (160, 80, 40, 20, 10, 5, 2.5 and 0 μM). […] Even if E seems to abolish the reactivity of the peptides this cannot be due to the negative charge only but also to the nature of the amino acides at the position X+1, X+2 and X+3. […] This is confirmed with LN-11Q8Q10 peptide.

Test [2] has as its target T1, microbial transglutaminase (mTG). The experiment in a line: mTG reaction on preferred substrates and Q-to-N mutated analogues. The conditions noted are these: mutated analogue peptides. The source says: In order to confirm the specificity of mTG reaction on the highly reactive peptide HH12Q11 and its small derivatives DH6N5, the inventors synthesized the mutated analogue peptides in which the Gln donors (Q) were replaced by asparagine (N).

For test [3] the target is unchanged. The experiment in a line: mTG-mediated incorporation of biotin-X-cadaverine into peptides coupled on Covabtest plate. The conditions noted are these: 15 nmoles peptide coupled to plate, biot-cad 0.1 mg/ml, mTG 10 ng/well. On the procedure: The coupling method was previously described by the Applicant (V. Thomas et al, 2004) and also in the corresponding data sheet of CovAbtest-Plate™ which is commercially available from Covalab (Ref #opr0004). Briefly, in separate tubes a solution mixture containing 150 μM of each peptide dissolved in 10 mM phosphate buffer pH5, 5 mM EDAC and 5 mM NHS was incubated for 30 min under gentle shaking. The resulting activated NHS-carboxyl C-terminal moiety of each peptide (15 nmoles) was used to be conjugated in each well of CovAbtest-Plate™ previously deprotonated during 15 min with 150 μl 0.6% sodium bicarbonate per well. The microtiter plate was then incubated during 2 hrs at room temperature and washed extensively with Tris Buffer Saline.
For this experiment we used the same procedures described by V Thomas et all (2004) and also in the Covalab's commercialized kit (opr0033). Briefly the Lyophilized transglutaminase was reconstituted in 40 mM tris buffer pH 8 and 50 μl of each mTG at 200 ng/ml and at 40 ng/ml were added in the wells containing 50 μl of biotin-X-cadaverine. The enzymatic mixture was incubated for 15 min at room temperature under gentle shaking. Then the plates were washed 3 times with TBS-Tween20 followed by the addition of 100 μl of diluted HRP labeled streptavidine ( 1/2000 in TBS Tween20, 0.5% BSA) in each well. After 30 min at room temperature and 3 washings in TBS-Tween20, 100 μL of TMB substrate were added and after 5 min the colour development was stopped using 100 μl of 0.5 M sulfuric acid. Absorbances at 450 nm were measured using a microplate reader (Multiskan, Labsystems, Helsinki, Finland).
To screen the peptide library (Covalab) and identify the putative new substrates of mTG we used Covabtest-peptide (described in B-I-1) in which the peptides were covalently coupled into the plates and the amine substrate Biotin-cadeverine (biot-cad) was free in solution. In this experiment 15 nmoles of each peptide (table 2) were covalently conjugated to microtiter plate and the incorporation of biot-cad (0.1 mg/ml) catalyzed by mTG (10 ng/well) was determined following the experiment described in B-II-1. Among all the peptides tested only few peptides were recognized by mTG as Gln (Q) donor to incorporate biot-cad as shown in the FIG. 1. The enzymatic activity was different between the peptide substrates. […] When Q is replaced by N (peptide HH12N11) no reactivity of the mTG was observed confirming the specificity of the enzyme to Gln donor. Moreover, if the reactivity of the 4 peptides (HH12Q11, DH6Q7, HG14Q11 and WG10Q7) is compared, it can be observed that the reactivity of the Gln depends on its position in the peptide sequence. In the most reactive peptides Q is located at the C-terminal. […]

The target is the same in test [4]. Description: mTG incorporation of biot-cad into coated BSA-peptide conjugate, with free-peptide competition. Conditions: 1 μg/ml coated, mTG 100 ng/ml, biotin-cad 0.1 mg/ml. On the procedure:
2 mg of each peptide was dissolved in 1 ml of deionized water and 150 nmoles were mixed with 0.5 mg BSA solubilized in 50 mM bicarbonate buffer pH9.5. After shaking, glutaraldehyde was added at a final concentration of 0.25% (v/v). The mixtures were kept at room temperature during 16 hrs under gentle shaking. At the end of this incubation time, sodium borohydride was added at a final concentration of 10 mg/ml to stabilize the cross-linking between BSA and the peptides. After 2 hours each mixture of peptide-BSA was dialyzed separately in PBS to remove any free peptides.
High binding 96 wells-microtiter plates (Costar) were used to immobilize BSA-peptide and to human IgG-peptide conjugates prepared as described in M-4 and M-5. For these experiments, conjugates were prepared at 50 μg/ml in 50 mM sodium carbonate buffer pH 9 and 100 μl of each solution was dispensed in the number of wells needed for the experiment. After overnight incubation at 4° C., the plates were washed extensively with Tris Buffer Saline (TBS) and were ready to be used for TG activity.
The same procedure was used as described in B-II-1
In the literature its well known that many proteins are not substrate of transglutaminase even if many glutamine residues are present in their structures (Gorman J J, Folk J E. J Biol Chem. 1984 Jul. 25; 259(14):9007-10). […]

As for YEVQK [BEST5], in test [1], the Kmapp came to 0.126 µM and the “reactivity of peptide with mTG (text on Table 3)” value (from here on “reactivity of peptide with mTG”) is “excellent substrates”.

YEAQK [BEST2]: in test [1], the Kmapp was determined as 0.114 µM and the “reactivity of peptide with mTG” value is “excellent substrates”.

Take “HDLMWPDVYSQH (also: biotin, place not given here) [bHH12Q11]”: in test [1], the Kmapp is 3.08 µM.

For “DVYSNH (also: biotin, place not given here) [bDH6N5]”, the Kmapp result in test [1] is on record as “nr”.

As for “HNKSQAL (also: biotin tag, position not given here) [bHL8Q6]”, the Kmapp entry in test [1] is “nr”.

For the substance “VWRSQYF (also: biotin, place not given here) [bVF7Q5]”, in test [1], the Kmapp result is recorded as “nr”.

As for DVYSQH (Peptide DH6Q5), the “reactivity of peptide with mTG” value in test [1] is listed as “highly reactive with mTG”.

WPAQR [BEST4]: in test [1], the Kmapp was determined as 0.225 µM and the “reactivity of peptide with mTG” value was “excellent substrates”.

YEIQR [BEST1]: in test [1], the Kmapp is 0.086 µM and the “reactivity of peptide with mTG” value is given as “excellent substrates”.

In the case of “KEEFQPL (also: biotin, place not given here) [bKL7Q5]”, in test [1], the Kmapp result is listed as “nr”.

As for DVYSNH (Peptide DH6N5), in test [2], the “mTG reactivity after replacement of Q by N” value was “abolish totally the enzyme reactivity”.

For the substance “FWIQE (also: biotin, place not given here) [bFE5Q4]”, in test [1], the Kmapp stood at 5.00 µM.

With “DVYSQH (also: biotin, place not given here) [bDH6Q5]”, the Kmapp in test [1] came to 33.10 µM.

With FWIQE (Peptide FE5Q4), the “reactivity of peptide with mTG” value in test [1] is “high reactivity with mTG”. Also, the “reactivity as Gln donor for mTG incorporation of biot-cad” value (from here on “reactivity as Gln donor”) in test [3] is “good substrate for mTG”.

Consider HDLMWPDVYSNH [HH12N11], for which the “mTG reactivity after replacement of Q by N” value in test [2] is listed as “abolish totally the enzyme reactivity”. In addition, the “reactivity as Gln donor” value in test [3] was “no reactivity”.

Consider WPDVYSQH (Peptide WH8Q7), for which the “reactivity of peptide with mTG” value in test [1] is “highly reactive with mTG”.

Turning to WPDVYSQH (also: biotin) [bWH8Q7], in test [1], the Kmapp stood at 11.40 µM.

Consider “PLVQSH (also: biotin, place not given here) [bPH6Q4]”, for which, in test [1], the Kmapp is 14.77 µM.

For the substance “free BSA: non modified bovine serum albumin, control [reference compound]”, the “incorporation of biot-cad by mTG into coated protein” value in test [4] was “no reactivity”.

“SPLKHQEY (also: biotin, place not given here) [bSY8Q6]”: the Kmapp in test [1] is over 50.00 µM.

On to WPLMMQD (also: biotin) [bWD7Q7], for which the Kmapp entry in test [1] is listed as “nr”.

As for YEAQR [BEST3], in test [1], the Kmapp came out at 0.08 µM and the “reactivity of peptide with mTG” value is on record as “excellent substrates”.

Consider “LLTLPSVQEQN (also: biotin, place not given here) [bLN11Q8-10]”, for which, in test [1], the Kmapp is 172.00 µM.

As for “GGSPLAQSHGGS (Peptide GS12Q7) [reference compound]”, the “reactivity as Gln donor” value in test [3] is “low reactivity”.

On to “LLTLPSVSEQN (also: biotin, place not given here) [bLN11Q10]”, for which, in test [1], the Kmapp result is “nr” and the “reactivity of peptide with mTG” value is on record as “inhibit completely the reactivity”.

Take “DVYSQE (also: biotin, place not given here) [bDE6Q5]”: in test [1], the Kmapp result is on record as “nr” and the “reactivity of peptide with mTG” value is listed as “reactivity seems to be lost”.

Take “HDLMWPDVYSNH (also: biotin, place not given here) [bHH12N11]”: in test [1], the Kmapp result is given as “nr”.

Turning to “PSVQES (not fully specified; also: biotin tag, site not given here) [bPS6Q3]”, the Kmapp entry in test [1] is recorded as “nr”.

As to “CHQSYV (also: biotin, place not given here) [bCV6Q3]”, the Kmapp result in test [1] is listed as “nr”.

As for HSQALP [bHP6Q3(A)], in test [1], the Kmapp entry is “nr”.

The values above are taken from patent publication US11376333B2, “mTG substrates for covalent conjugation of compounds” (COVALAB, priority 2013, dated 2022).
